Substrate: CC(=O)NC1C(Oc2ccc(NC(=O)CCN(CCCCNC(=O)c3ccccc3)C(=O)OC(C)(C)C)cc2)OC(COS(=O)(=O)O)C(O)C1O
Assay: Enzyme kinetics of HexA with the HexA substrate, endogenous enzyme from healthy adult dried blood spots, LC-MS/MS detection
Assay type: biochemical
Conditions: other: endogenous enzyme from healthy adult dried blood spots
Procedure: 3.2 mm punches were taken from dried blood samples. The punches were added into a well of a multiwell plate and in particular, a 1.0 mL deep-well 96-well plate. Following, 30 μL of the duplex assay cocktail described above was added to each well. The plate was sealed with a silicone sealing mat and shaken at 250 rpm for 4 hours at 37° C. in an orbital shaker incubator. After incubation, the enzymatic reaction was quenched by adding 100 μL of methanol: ethyl acetate (1:1) and mixed by pipetting up and down ˜10 times. Analytes were extracted by adding sodium chloride solution (0.5 M, 200 μL) and ethyl acetate (400 μL) to each well and mixed by pipetting up and down ˜10 times. […]
Analytes were detected via a WATERS™ Xevo TQ triple-quadrupole mass spectrometer. […] The following MRM traces were monitored for quantitation: HexA enzymatic reaction product (456.5>356.1), HexA/B enzymatic reaction product (461.5>361.2), and internal standard (465.5>357.1). […]
Enzyme kinetics of HexA and HexA/B were measured in relationship to the HexA substrate and HexA/B substrate, respectively, using endogenous enzymes from healthy adult dried blood spots. […]
The reaction rate for each substrate at different substrate concentrations was measured and the relationship found to be hyperbolic.

B1: HexA (Homo sapiens) (protein)
chain: TLEKNVLVVSVVTPGCNQLPTLESVENYTLTINDDQCLLLSETVWGALRGLETFSQLVWKSAEGTFFINKTEIEDFPRFPHRGLLLDTSRHYLPLSSILDTLDVMAYNKLNVFHWHLVDDPSFPYESFTFPELMRKGSYNPVTHIYTAQDVKEVIEYARLRGIRVLAEFDTPGHTLSWGPGIPGLLTPCYSGSEPSGTFGPVNPSLNNTYEFMSTFFLEVSSVFPDFYLHLGGDEVDFTCWKSNPEIQDFMRKKGFGEDFKQLESFYIQTLLDIVSSYGKGYVVWQEVFDNKVKIQPDTIIQVWREDIPVNYMKELELVTKAGFRALLSAPWYLNRISYGPDWKDFYIVEPLAFEGTPEQKALVIGGEACMWGEYVDNTNLVPRLWPRAGAVAERLWSNKLTSDLTFAYERLSHFRCELLRRGVQAQPLNVGFCEQEFEQT
notes: using endogenous enzymes from healthy adult dried blood spots; from tissue; host or cells: dried blood spots from healthy adults/individuals (3.2 mm punches)
Km: 4,051 μM
